Test results from publication PMC10098051.

Target: PeSy1‐His recombinant protein (Saccharothrix yanglingensis Hhs.015)
Assay: MST; PeSy1‐His labelled with protein labelling kit RED, in PBST (PBS with 0.05% Tween 20); serially diluted RSy1‐GST in 16 standard treated capillaries; Monolith NT.115, excitation power 40%, MST power medium; GST as reference control; three biological repeats

Kd: 8.77 µM
Substance: RSy1‐GST recombinant protein (natural protein)
